Laboratory results: patent US20200179497A1 (HANSA BIOPHARMA, published 2020)

How the values were obtained:
[1] = biological target: rabbit anti-BSA (ACRIS, #R1048P); assay: cell-based or functional assay
denosumab (XGEVA) = assay: cell-based or functional assay

B1: pCART201 (enzyme)
chain: MSVWTKGVTPLTPEQFRYNNEDVIHAPYLAHQGWYDITKAFDGKDNLLCGAATAGNMLHWWFDQNKTEIEAYLSKHPEKQKIIFNNQELFDLKAAIDTKDSQTNSQLFNYFRDKAFPNLSARQLGVMPDLVLDMFINGYYLNVFKTQSTDVNRPYQDKDKRGGIFDAVFTRGDQTTLLTARHDLKNKGLNDISTIIKQELTEGRALALSHTYANVSISHVINLWGADFNAEGNLEAIYVTDSDANASIGMKKYFVGINAHGHVAISAKKIEGENIGAQVLGLFTLSSGKDIWQKLSGGGHHHHHH
- pCART124 ratio (fold change in potency relative to IdeS), potency ELISA [1]: 8 fold

B2: pCART197 (enzyme)
chain: MDDYQRNATEAYAKEVPHQITSVWTKGVTPLTPEQFRYNNEDVIHAPYLANQGWYDITKAFDGKDNLLCGAATAGNMLHWWFDQNKTEIEAYLSKHPEKQKIIFRNQELFDLKEAIRTKDSQTNSQLFEYFRDKAFPYLSARQLGVMPDLVLDMFINGYYLNVFKTQSTDVKRPYQDKDKRGGIFDAVFTRGNQTTLLTARHDLKNKGLNDISTIIKEELTKGRALALSHTYANVSISHVINLWGADFNAEGNLEAIYVTDSDANASIGMKKYFVGINKHGHVAISAKKIEGENIGAQVLGLFTLSSGKDIWQKLNGGGHHHHHH
- pCART124 ratio (fold change in potency relative to IdeS), potency ELISA [1]: 8 fold

B3: pCART203 (enzyme)
chain: MDDYQRNATEAYAKEVPHQITSVWTKGVTPPEQFTQGEDVIHAPYLAHQGWYDITKAFDGKDNLLCGAATAGNMLHWWFDQNKTEIEAYLSKHPEKQKIIFNNQELFDLKAAIDTKDSQTNSQLFNYFRDKAFPNLSARQLGVMPDLVLDMFINGYYLNVFKTQSTDVNRPYQDKDKRGGIFDAVFTRGDQTTLLTARHDLKNKGLNDISTIIKQELTEGRALALSHTYANVSISHVINLWGADFNAEGNLEAIYVTDSDANASIGMKKYFVGINAHGHVAISAKKIEGENIGAQVLGLFTLSSGKDIWQKLSGGGHHHHHH
- cleavage efficacy on SDS-PAGE, fold vs pCART144 (denosumab (XGEVA)): ~3 fold
- pCART124 ratio, potency ELISA [1]: ~3.5 fold
